Assay results from the supplement of paper PMC9170038.

Test system: MS2 coat protein
Assay: apparent KD of MS2 coat protein; designed switch direction (-1 OFF switch, 1 ON switch): -1; higher = weaker reporter binding
How it was run: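 RNA switches sharing common flanks were transcribed by stalled E. coli RNA polymerase on Illumina chips. A doubling series of SNAP-549-labelled MS2 coat protein, from 0.7 or 1.5 nM to 3 µM, was applied in Tris-HCl pH 7.5 buffer with KCl, MgCl2, BSA, DTT, tRNA and Tween-20. Each step lasted 0.8–1.5 h at the bottom of the series and 10–20 min at the top. Normalised cluster fluorescence was curve-fitted, giving apparent KD as the per-design median over clusters.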

[1] = Eterna round: R95, input ligand: FMN 200 uM
[2] = Eterna round: R95, input ligand: microRNA oligo, concentration not stated
[3] = Eterna round: R95, input ligand: none
[4] = input ligand: microRNA oligo, concentration not stated

Sequence | apparent KD of MS2 coat protein (input ligand: FMN 200 uM) | apparent KD of MS2 coat protein (input ligand: none) | apparent KD of MS2 coat protein [1] | apparent KD of MS2 coat protein [2] | apparent KD of MS2 coat protein [3] | apparent KD of MS2 coat protein [4]
CAGUACUGAGGAUAUACAUGAGGAUCACCCAUGUGUGUGAAUUUUAUGUGGUCGUAAUGUAGAAGGCAGUACUG [JR_Ex3_Sub027] (Eterna round: R97, puzzle: Exclusion 3) | 407 nM | 86.3 nM | – | – | – | –
CUUUUGUGAGGAUAUUGGUAGUAAAUAAAUAAAAUUAUUACCGAGAAGGUACAUGAGGAUCACCCAUGUUCCUC [Salish 062 v18] (Eterna round: R97, puzzle: Exclusion 4) | 32.1 nM | 18.2 nM | – | – | – | –
UAAACAAGCUAAAGAUUCUACAUGAGGAUCACCCAUGUGCUCGUCUUAUAAGGUACUGUGACGAAAGUCACGGUACC [JL TOV1 3.07] (Eterna round: R97, puzzle: Sensor, turn-off variant 1) | 17.9 nM | 21.1 nM | – | – | – | –
GGCAUCGGAGGAUAUACUUAUGGUGAUGCCCGAAGCUUUCUACUUGAGGAUCACCCAAGUAGAAGGCCGAUGCC [jl-ex2.4.79 ViennaUCT mod] (Eterna round: R97, puzzle: Exclusion 2) | 11.2 nM | 12.7 nM | – | – | – | –
CAUGUCCGAGGAUAUAUUAUGUGAAACAUGAGGAUCACCCAUGUUAUAUGAUGGAUGUAAAUAGAAGGCGGACGUG [Mat - Exclusion 5 - JL mod - D65] (puzzle: Exclusion 5) | – | – | 26.3 nM | 31.6 nM | 34.5 nM | –
UCAAUACGGAAGGAUAUGCCGAAGCAUGCGCAGGCAGAAGGUCUGACAUGAGGAUCACCCAUGUUGGAGAUCAA [Eternabot (L2) Solution 21] (Eterna round: R97, puzzle: Exclusion 6) | 82.1 nM | 19.1 nM | – | – | – | –
CUGCUGGAGCGUUGCUUUGGUCGUACAUGAGGAUCACCCAUGUAGGAUAUGGUAAAAUUUGCUUGCUAGAAGGAUAGAGUGGUC [salish99_ExNG3_r04_613] (Eterna round: R96, puzzle: Exclusion NG 3) | 117 nM | 64.6 nM | – | – | – | 63.5 nM
AGAAGUAGUAACCGAUCCUACAUGAGGAUCACCCAUGUAGCGGGACGUGCACGCGAAGCUCGUCAGACUACCAGAUG [salish99_TOv1_r3_024] (puzzle: Sensor v3, turn-off variant 1) | – | – | 27.2 nM | 26.7 nM | 28.6 nM | –
UUUUAACAUGAGGAUCACCCAUGUGAGGAUAUCGUUAUUUAUAUUAAUAUUAAUAAAACGAGAAGGCACAUUUU [JMF 6] (puzzle: Exclusion 1) | – | – | – | 117 nM | – | –
GCAAGCUUUUAGAUUUUCAACAUGAGGAUCACCCAUGUUCGUCUUGUGCUCGGGCUUGGGCGGUGUCCGGGUUUGGG [JL TOV1 3.76 sellena mod] (Eterna round: R97, puzzle: Sensor, turn-off variant 1) | 36.2 nM | 38.3 nM | – | – | – | –
AGUACUGACACGAAAGUGUUAGUACAAUAAGCUUGUGAAACAUGAGGAUCACCCAUGUCCUCAUAAGCUCGUCUUAU [salish99_TOv2_r3_017] (Eterna round: R96, puzzle: Sensor v3, turn-off variant 2) | 15.9 nM | 17.9 nM | – | – | – | 469 nM
UUUAAUUUUUUUUUUUUACAAGCUUUUUGCUCGUCUUAUACAUGAGGAUCACCCAUGUAGGUGAGGGAUAAAUUAUC [JMF 43] (puzzle: Sensor v3, turn-off variant 2) | – | – | 29.1 nM | 150 nM | 27.3 nM | –
GGUUGGCGAGGAUAUACAUGAGGAUCACCCAUGUGAGAGAAAAUAGUGAGGAAGAAAAGUAGAAGGCGCUGACG [salish99_ex3_r3_014] (puzzle: Exclusion 3) | – | – | 98.1 nM | 47.7 nM | 37.5 nM | –
UAAAUAAAUGUAGGAUAUCUGCACGAUUAGUGCAGAGAAGGACAUGAGGAUCACCCAUGUAUAGUAGCUUCGGCUACAAAUAAU [ENG1-C1] (Eterna round: R96, puzzle: Exclusion NG 1) | 89.9 nM | 71.2 nM | – | – | – | 51.9 nM
AAUUGGUUAGGAUAUCGGGAAUAUCACAUGAGGAUCACCCAUGUGACCUUUAUGGUGUCAUGAGAAGGGACGCGGA [Eternabot (L1) Solution 11] (Eterna round: R97, puzzle: Exclusion 5) | 27.9 nM | 24.5 nM | – | – | – | –
GAGGUGGGUUUUCAGAGUAACAUGAGGAUCACCCAUGUAGAAGUUGAAGGUAUCAAGCGAAUGGCUCGUCAAAUGUG [JR_SV3TOV1_Sub048] (puzzle: Sensor v3, turn-off variant 1) | – | – | 135 nM | 171 nM | 233 nM | –
UCUCGCGGGCAAGGAUAUCCCACGCUGUUCUGGCCCGUGUCUGUUACAUGAGGAUCACCCAUGUGGGAGAAGGUGCACCAGGGC [Design 43] (Eterna round: R96, puzzle: Exclusion NG 2) | 30.9 nM | 29.4 nM | – | – | – | 16.8 nM
AGAAAUGCCCAUGGCCGCAAGCUUUCUGCUUGUCUUACCACAUGAGGAUCACCCAUGUGACAUGGGCUCCUUAUAAU [Soralaer] (puzzle: Sensor v3, turn-off variant 2) | – | – | 14.4 nM | 11 nM | 13.2 nM | –
GGUAGAGUGGUAGGAUAUCCGUCUGUUUCAGUCGGAGAAGGGCCACAGUCACUGGGUCCUAAUAUCAUGGAGACCUGAUCUACU [pwkr exNG1 F6.13] (Eterna round: R96, puzzle: Exclusion NG 1) | 785 nM | 385 nM | – | – | – | 337 nM
AAGGAUAGAGGAUAUACAUAGAUACAGAUUCGUGUAGUCCUACAUGAGGAUCACCCAUGUAGAAGGCUAUCCUA [Fiskers Ex 2 - 13] (puzzle: Exclusion 2) | – | – | – | 11.3 nM | – | –
AGUAGUUGUUUCCGUUCUUACAUGAGGAUCACCCAUGUUUCUUGACGUGCACGCGAUGCUCGUCAGACUACCAGAUG [salish99_TOv1_r3_057] (puzzle: Sensor v3, turn-off variant 1) | – | – | 57.6 nM | 87.8 nM | 81.7 nM | –
CCAGGCUGUGUGAGGAUAUGCUGGUCCUUGGAUCAGCAGAAGGCACAUGAGGAUCACCCAUGUGAGGAGCUUGG [JL bmx4 3.28] (puzzle: Brourd's mod of Exclusion 4) | – | – | – | 19.9 nM | – | –
AAGAAACAUGAGGAUCACCCAUGUGAGGAUAUGUAAAAGAAAAGAAAAGAAAGAAGAAACAGAAGGCACAAAGG [Mat - Mod of Hog D12] (puzzle: Exclusion 1) | – | – | 82 nM | 50.7 nM | 45.2 nM | –
AAUUAGCAAGCAAGAUCCCACAUGAGGAUCACCCAUGUGCUCGUCUUAUAAGGUACUGUGACGAAAGUCACGGUACC [Mat - Sensor, turn-off var - Eli Mod - D50] (Eterna round: R97, puzzle: Sensor, turn-off variant 1) | 50.2 nM | 54.8 nM | – | – | – | –
UCAUGUCCGGAGGAUAUGGCGCCCGUAAGGGCGCCAGAAGGCCGGACAUGAGGAUCACCCAUGUCGGCCUUCCC (Eterna round: R97, puzzle: Exclusion 6) | 22.1 nM | 28.4 nM | – | – | – | –
